# B1: Protein pid-1 (Caenorhabditis elegans), Q19541 (parent)
# chain: MSAKREFSHITLASTPFKKRIDQNSLKTDSDIEKDTNIAHKCAERFNYNTNLHRKVTLSDRFELAALGYEMKAKPRTIIEKHNDCDEFHFIYRKEKKNDYGTGSPLSAGLSLSNPLPAGRGFLSPAIQNTSNQFTFSGSPRITPQKHTPVSANHKPARSIFDDIPSNIA
# partner: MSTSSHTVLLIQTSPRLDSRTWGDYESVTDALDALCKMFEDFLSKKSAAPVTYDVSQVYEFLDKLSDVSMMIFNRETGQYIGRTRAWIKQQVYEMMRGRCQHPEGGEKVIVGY
# B2: Protein tost-1 (Caenorhabditis elegans), Q18490 (parent)
# chain: MTTAIQYQVIPLADREHSNKVASILENKYKTATNKRITLNERFGVLEKGYTIQATEPETVKNDSDVFFVVHDRNLNSKKEFVENYLAKNPIVNSPEKVFEEEDKENAPTKKAVLKPSSTDEKKLTSSDIYIQEITRSILQSV
# partner: B1 partner
# Variants of: B1
# Conditions: with erh2_caeel erh-2, Q20057
row,Variant,effect of a mutation on the interaction
1,R61C,decreasing interaction strength

# Variants of: B1
# Conditions: with erh2_caeel erh-2, Q20057
# Remark: another data set of the same source
row,Variant,effect of a mutation on the interaction
1,R61C,disrupting interaction strength

# Variants of: B2
# Conditions: with erh2_caeel erh-2, Q20057
row,Variant,effect of a mutation on the interaction
1,R42C,disrupting interaction strength

# Source: IntAct's records for PubMed 31147388
